In article PMC3029386:

Experiments:
[1] = molecular target: DevR (full-length) (Mycobacterium tuberculosis) (UniProt P9WMF9); test: DNase I footprinting
[2] = molecular target: DevRC (DevR C-terminal domain) (Mycobacterium tuberculosis H37Rv) (UniProt P9WMF9); test: DNase I footprinting
DevRC (DevR C-terminal domain) (Mycobacterium tuberculosis H37Rv), sequence (P9WMF9 141-217): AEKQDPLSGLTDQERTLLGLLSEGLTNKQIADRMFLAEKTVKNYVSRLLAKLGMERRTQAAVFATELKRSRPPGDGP

DevR (full-length) (Mycobacterium tuberculosis), sequence (P9WMF9 whole entry, the tested form may be a part): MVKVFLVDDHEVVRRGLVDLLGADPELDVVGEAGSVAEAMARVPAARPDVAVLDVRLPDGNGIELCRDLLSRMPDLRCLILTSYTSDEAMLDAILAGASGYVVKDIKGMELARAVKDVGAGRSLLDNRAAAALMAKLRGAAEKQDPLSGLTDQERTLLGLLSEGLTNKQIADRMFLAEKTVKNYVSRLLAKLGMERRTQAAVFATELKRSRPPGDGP

TGGCTGCCGGGCCTTTCCCATCAACGGCTGCGGTCATCTATTAAGGATCGCGCGTCGACAGCCGCGGTGGCAGAGCACGAAGGCTCGCCAGCGGAGGACCTTTGGCCCTGCCTCAACGGCTCCTCGCAGCGGAGAGTGGTACTGACGGTTGCAGATAATCCGGATCACCGGGGAAGGCGCTGACCATG (double strand) [tgs1-Rv3131 intergenic DNA (3130F/3131R)]
binding [1]: binds
binding [2]: binds
